Data from US20240199757A1 (UNIVERSITY OF CHICAGO, published 2024).

T1: Full-length cynomolgus NT5E (recombinant) (cynomolgus, UniProt P21589 27-549 (human entry))
T1 construct: also called cNT5E; cyno NT5E
T1 chain: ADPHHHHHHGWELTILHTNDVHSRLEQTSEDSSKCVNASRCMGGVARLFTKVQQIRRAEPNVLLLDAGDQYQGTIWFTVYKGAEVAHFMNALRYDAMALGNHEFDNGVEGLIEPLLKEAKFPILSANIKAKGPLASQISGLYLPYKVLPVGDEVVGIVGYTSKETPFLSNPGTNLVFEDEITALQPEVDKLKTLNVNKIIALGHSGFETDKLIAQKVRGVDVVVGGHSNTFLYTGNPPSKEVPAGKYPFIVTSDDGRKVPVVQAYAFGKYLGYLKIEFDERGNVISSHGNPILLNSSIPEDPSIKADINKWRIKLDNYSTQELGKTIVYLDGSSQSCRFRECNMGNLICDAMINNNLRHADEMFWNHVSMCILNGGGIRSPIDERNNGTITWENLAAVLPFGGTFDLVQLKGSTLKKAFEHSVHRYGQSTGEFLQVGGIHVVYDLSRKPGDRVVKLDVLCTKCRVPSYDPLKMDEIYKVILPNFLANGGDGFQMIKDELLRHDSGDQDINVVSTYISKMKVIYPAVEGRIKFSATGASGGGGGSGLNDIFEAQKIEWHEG

T2: Full-length human NT5E (recombinant, in-house) (human, UniProt P21589 27-549)
T2 construct: also called hNT5E; hNT5EWT
T2 sequence: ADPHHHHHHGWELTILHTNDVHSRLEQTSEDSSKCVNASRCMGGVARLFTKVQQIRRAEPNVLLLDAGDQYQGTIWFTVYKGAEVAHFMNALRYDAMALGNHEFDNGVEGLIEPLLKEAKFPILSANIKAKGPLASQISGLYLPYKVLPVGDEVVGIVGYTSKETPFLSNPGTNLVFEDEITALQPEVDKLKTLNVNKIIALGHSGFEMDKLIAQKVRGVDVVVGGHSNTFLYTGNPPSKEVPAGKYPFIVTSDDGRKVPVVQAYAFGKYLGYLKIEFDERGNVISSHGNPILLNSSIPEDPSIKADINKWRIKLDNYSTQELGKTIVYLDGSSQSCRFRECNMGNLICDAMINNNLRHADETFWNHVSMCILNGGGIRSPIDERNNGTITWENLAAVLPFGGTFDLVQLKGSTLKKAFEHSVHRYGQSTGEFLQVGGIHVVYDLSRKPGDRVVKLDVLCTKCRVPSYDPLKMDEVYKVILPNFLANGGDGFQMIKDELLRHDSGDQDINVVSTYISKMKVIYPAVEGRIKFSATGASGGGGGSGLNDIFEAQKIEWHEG

T3: human NT5E expressed on MDA-MB-231 cells (human, UniProt P21589 27-549)
T3 construct: whole, on cells; also called NT5E-expressing MDA-MB-231 cells; CD73
T3 sequence (looked up): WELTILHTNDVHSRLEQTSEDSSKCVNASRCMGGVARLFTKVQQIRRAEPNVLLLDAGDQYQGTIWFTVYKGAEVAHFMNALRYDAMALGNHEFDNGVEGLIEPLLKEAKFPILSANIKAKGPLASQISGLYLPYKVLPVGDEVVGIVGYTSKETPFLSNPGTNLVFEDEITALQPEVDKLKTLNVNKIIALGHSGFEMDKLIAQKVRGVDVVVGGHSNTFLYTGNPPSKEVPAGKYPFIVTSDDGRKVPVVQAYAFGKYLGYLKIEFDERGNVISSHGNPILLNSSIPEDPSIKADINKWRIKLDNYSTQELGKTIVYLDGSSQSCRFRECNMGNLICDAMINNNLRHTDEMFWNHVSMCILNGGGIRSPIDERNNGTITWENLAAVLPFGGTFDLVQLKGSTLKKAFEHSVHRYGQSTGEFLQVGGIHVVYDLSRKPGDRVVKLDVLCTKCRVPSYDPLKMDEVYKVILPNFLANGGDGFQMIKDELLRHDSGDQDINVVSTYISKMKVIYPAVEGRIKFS


Columns and labels:
[1] = target: T1, Full-length cynomolgus NT5E …; assay: SPR, His-captured NT5E, no ATP
Description: (§1) All SPR experiments were performed at 25° C. using MASS-1 (Bruker) instrument. hNT5E, mNT5E and cNT5E were immobilized onto a nitrilotriacetic acid (NTA) sensor chip via His-tag. For kinetic experiments, after ligand immobilization, 2-fold serial dilutions of the Fabs were injected. After double-reference subtraction data were analyzed with BiaEvaluation (GE Healthcare) or Sierra Analyser (Bruker) software. The experiments were carried in buffers in presence and absence of 1 mM ATP to compare the kinetic parameters of the Fabs binding to closed and open form of NT5E.

[2] = target: T2, Full-length human NT5E (recombinant, …); assay: SPR, His-captured NT5E, no ATP
Description: as §1

[3] = target: T3, human NT5E expressed on MDA-MB-231 cells; assay: flow cytometry on MDA-MB-231 cells, 1 mM ATP
Description: (§2) Flow cytometry analysis of antibodies binding to human NT5E expressed on MDA-MB-231 cells in ATP-free condition (black) or in 1 mM ATP (red). Top panel: (left) 1780 Fab and (right) 1780 IgG titrations. […] Binding was measured at the indicated range of antibody concentrations and is expressed as mean±st. dev of median fluorescence intensity (MFI) of 1-2 replicates. Data were analyzed using OriginLab, and EC₅₀ values are shown next to the fitted curves.
(§3) Human MDA-MB-231 cells and murine 4T1 cells were grown to 90% confluency, detached with 5 mM EDTA for 15 min at 37° C. and then resuspended in 37° C. lx PBS (#10010031, Gibco) supplemented with 1% FBS and 1OpM ZnCl2. Separate working buffers (WB) of PBS and 1% FBS with or without fixed nucleotide concentrations were used throughout all washing steps to maintain constant condition. In 96-well plates (#3799, Costar), 0.2×10⁶ cells were added per well. The plates were spun at 500×g for 5 min and the supernatant was removed. Anti-NT5E antibodies were diluted to the desired concentration in 100 μL WB, added to the cells and the plates were incubated for 20 min at 37° C. Plates were spun and cells were washed twice with WB then spun a second time. Cells were stained with 100 μL of secondary antibody (Alexa Fluor 647 AffiniPure Goat Anti-Human IgG, F(ab′)2 fragment specific, #109-605-006, Jackson, 1:200) dilution and plates were incubated for 20 min at 37° C. Cells were washed twice with WB then fixed on ice with WB supplemented with 0.5% PFA. Fixing solution was removed by centrifugation and cells were resuspended in cold 1× PBS. Samples were analyzed by flow cytometry using CytoFLEX (Beckman Coulter) and mean fluorescence intensity (MFI) data was extracted using FlowJo software. Resulting binding data was plotted using OriginLab.

[4] = target: T3, human NT5E expressed on MDA-MB-231 cells; assay: flow cytometry on MDA-MB-231 cells, PBS without ATP; -ATP (PBS alone), MDA-MB-231 cells
Description: as §2
as §3, with “Cells were stained with 100 μL of secondary antibody (Alexa Fluor 647 AffiniPure Goat Anti-Human IgG, F(ab′)2 fragment specific, #109-605-006, Jackson, 1:200) dilution and plates were incubated for 20 min at 37° C. Cells were washed twice with WB then fixed on ice with WB supplemented with 0.5% PFA. Fixing solution was removed by centrifugation and cells were resuspended in cold 1× PBS.” left out, “Resulting binding data was plotted using OriginLab.” left out

Row | Binder | Kd [1] [nM] | koff [1] [s⁻¹] | Kd [2] [nM] | koff [2] [s⁻¹] | kon [2] [M⁻¹ s⁻¹] | EC50 [3] [nM] | EC50 [4] [nM]
1 | 1789 Fab (Fab, V domains shown) VH: EVQLVESGGGLVQPGGSLRLSCAASGFNVSYSSIHWVRQAPGKGLEWVASISSSSGYTYYADSVKGRFTISADTSKNTAYLQMNSLRAEDTAVYYCARNYWGWYPFYYFAFDYWGQGTLVTV VL: DIQMTQSPSSLSASVGDRVTITCRASQSVSSAVAWYQQKPGKAPKLLIYSASSLYSGVPSRFSGSRSGTDFTLTISSLQPEDFATYYCQQGWDYPITFGQGTKVEIKR | 150 | 0.02 | 760 | 0.044 | 57000 | 52 | 
2 | 1789 IgG (antibody, V domains shown) VH: EVQLVESGGGLVQPGGSLRLSCAASGFNVSYSSIHWVRQAPGKGLEWVASISSSSGYTYYADSVKGRFTISADTSKNTAYLQMNSLRAEDTAVYYCARNYWGWYPFYYFAFDYWGQGTLVTVSS VL: DIQMTQSPSSLSASVGDRVTITCRASQSVSSAVAWYQQKPGKAPKLLIYSASSLYSGVPSRFSGSRSGTDFTLTISSLQPEDFATYYCQQGWDYPITFGQGTKVEIKR |  |  |  |  |  |  | 124
